Reference: patent US20240409629A1 (CHIA TAI TIANQING PHARMACEUTICAL GROUP, published 2024)
Like-named read-outs stand apart in the source and are kept apart here.

Assays:
human CLDN18.2 [1] = target: T1, human CLDN18.2 (human); assay: FACS, KATOIII cells (natural CLDN18.2)
T1 construct: also called claudin18.2
Description: (§1) Based on the FACS method, the binding activity of anti-CLDN18.2 antibodies for the cell line U2OS-CLDN18.2 overexpressing CLDN18.2 and the cell lines KATOIII (Cell Bank of the Chinese Academy of Sciences) and NUGC-4 (Cell Bank of the Chinese Academy of Sciences) naturally expressing CLDN18.2 was analyzed.
(§2) The cell concentration was adjusted with PBS, and cells (U2OS-CLDN18.2, KATOIII, or NUGC-4 cells) were added to a 96-well plate at 3×10⁵ cells/well, then the test antibodies at different concentrations were added to each well of the 96-well plate, and the mixture was incubated at 4° C. for 60 min. […] The supernatant was discarded, the cells were washed 3 times with pre-cooled PBS buffer, PE-Goat Anti-Human IgG Fcγ (Jackson immunoresearch, Cat. No. 109-116-170) diluted at 1:200 was added at 100 μL/well, and the mixture was incubated at 4° C. for 30 min. Cells were washed 3 times with pre-cooled PBS buffer and resuspended in 100 μL of PBS buffer, and then the fluorescence signals were detected using a flow cytometer (Sartorius, iQUE3). The binding ability of the anti-CLDN18.2 antibodies for CLDN18.2 was measured by mean fluorescence intensity (MFI) of staining.

human CLDN18.2 [2] = target: T1, human CLDN18.2; assay: FACS, U2OS-CLDN18.2 cells
Description: as §1, §2

human CLDN18.2 [3] = target: T1, human CLDN18.2; assay: cell-based or functional assay
human CLDN18.2 [4] = target: T1, human CLDN18.2; assay: FACS, U2OS-CLDN18.2 cells; remark: listed apart in the source
Description: as §1, §2

human CLDN18.2 [5] = target: T1, human CLDN18.2; assay: FACS, U2OS-CLDN18.2 cells; remark: listed apart in the source
Description: as §1, §2

human CLDN18.2 [6] = target: T1, human CLDN18.2; assay: cell-based or functional assay; remark: listed apart in the source
human CLDN18.2 [7] = target: T1, human CLDN18.2; assay: FACS, KATOIII cells (natural CLDN18.2); remark: listed apart in the source
Description: as §1, §2

human CLDN18.2 [8] = target: T1, human CLDN18.2; assay: FACS, NUGC-4 cells (natural CLDN18.2)
Description: as §1, §2

human CLDN18.2 [9] = target: T1, human CLDN18.2; assay: FACS, NUGC-4 cells (natural CLDN18.2); remark: listed apart in the source
Description: (§3) Based on the FACS method, the binding activity of anti-CLDN18.2 humanized antibodies for the cell lines KATOIII (Cell Bank of the Chinese Academy of Sciences) and NUGC-4 (Cell Bank of the Chinese Academy of Sciences) naturally expressing CLDN18.2 was analyzed. […] See Example 3 for the specific method.

human CLDN18.2 [10] = target: T1, human CLDN18.2; assay: FACS, KATOIII cells (natural CLDN18.2); remark: listed apart in the source
Description: as §3

human CLDN18.2 [11] = target: T1, human CLDN18.2; assay: cell-based or functional assay; remark: listed apart in the source
human CLDN18.2 [12] = target: T1, human CLDN18.2; assay: FACS, NUGC-4 cells (natural CLDN18.2); remark: listed apart in the source
Description: as §1, §2

human CLDN18.2 [13] = target: T1, human CLDN18.2; assay: FACS, NUGC-4 cells (natural CLDN18.2); remark: listed apart in the source
Description: as §1, §2

human CLDN18.2 [14] = target: T1, human CLDN18.2; assay: cell-based or functional assay; remark: listed apart in the source
human CLDN18.2 [15] = target: T1, human CLDN18.2; assay: FACS, NUGC-4 cells (natural CLDN18.2); remark: listed apart in the source
Description: as §3

human CLDN18.2 [16] = target: T1, human CLDN18.2; assay: cell-based or functional assay; remark: listed apart in the source
human CLDN18.1 = target: T2, human CLDN18.1 (human, UniProt P56856 1-261); assay: FACS, U2OS-CLDN18.1 cells, antibody at 200 nM
T2 construct: also called claudin18.1
Description: Based on the FACS method, the binding activity of anti-CLDN18.2 antibodies for the cell line U2OS-CLDN18.1 overexpressing CLDN18.1 (SEQ ID NO: 2) was analyzed. The cell concentration was adjusted with PBS, and the U2OS-CLDN18.1 cells were added to a 96-well plate at 3×10⁵ cells/well, then the test antibodies were added to each well of the 96-well plate, the final concentration of the antibody was 200 nM, and the mixture was incubated at 4° C. for 60 min. The supernatant was discarded, the cells were washed 3 times with pre-cooled PBS buffer, PE-Goat Anti-Human IgG Fcγ (Jackson immunoresearch, Cat. No. 109-116-170) diluted at 1:200 was added at 100 μL/well, and the mixture was incubated at 4° C. for 30 min. Cells were washed 3 times with pre-cooled PBS buffer and resuspended in 100 μL of PBS buffer, and then the fluorescence signals were detected using a flow cytometer (Sartorius, iQUE3). The nonspecific binding of the anti-CLDN18.2 antibodies for U2OS-CLDN18.1 cells was measured by mean fluorescence intensity (MFI) of staining. The IgG1 isotype control antibody (prepared in-house, with the heavy and light chain amino acid sequences as set forth in SEQ ID NOs: 67 and 68 in the present disclosure) was used as the control, and 2-fold the IgG1 isotype control antibody was used as the benchmark, thus determining the presence or absence of nonspecific binding.

human CLDN18.2 [17] = target: T1, human CLDN18.2; assay: FACS, KATOIII cells (natural CLDN18.2); remark: listed apart in the source
Description: as §3

human CLDN18.2 [18] = target: T1, human CLDN18.2; assay: cell-based or functional assay; remark: listed apart in the source

B1: IMAB362 (antibody, human IgG1, kappa, V domains shown)
VH: QVQLQQPGAELVRPGASVKLSCKASGYTFTSYWINWVKQRPGQGLEWIGNIYPSDSYTNYNQKFKDKATLTVDKSSSTAYMQLSSPTSEDSAVYYCTRSWRGNSFDYWGQGTTLTVSS
VL: DIVMTQSPSSLTVTAGEKVTMSCKSSQSLLNSGNQKNYLTWYQQKPGQPPKLLIYWASTRESGVPDRFTGSGSGTDFTLTISSVQAEDLAVYYCQNDYSYPFTFGSGTKLEIKR
notes: Positive control, prepared in-house; also called Claudiximab; TMAB362 [sic]
B1 was tested, and the EC50 (human CLDN18.2 [1]) was 81.3 nM, the EC50 (human CLDN18.2 [2]) was 16 nM and the “ADCC EC50, Jurkat-CD16a v158-NFAT-luciferase effector cells, NIH-3T3-CLDN18.2 target cells” value (human CLDN18.2 [3]) was 0.023 nM. The “ADCC EC50, Jurkat-CD16a v158-NFAT-luciferase effector cells, NUGC-4 target cells” value (human CLDN18.2 [3]) was 0.856 nM, the EC50 (human CLDN18.2 [4]) was 16.2 nM and the EC50 (human CLDN18.2 [5]) was 22.9 nM. The “CDC EC50, KATOIII target cells” value (human CLDN18.2 [6]) was 12.8 nM, the “CDC EC50, U2OS-CLDN18.2 target cells” value (human CLDN18.2 [6]) was 9.79 nM and the EC50 (human CLDN18.2 [7]) was roughly 26900 nM. It also gave an EC50 (human CLDN18.2 [8]) of 567 nM, an EC50 (human CLDN18.2 [9]) of 567 nM and an EC50 (human CLDN18.2 [10]) of 38.2 nM. The “CDC EC50, NIH-3T3-CLDN18.2 target cells” value (human CLDN18.2 [11]) was 24.4 nM, the EC50 (human CLDN18.2 [12]) was 202 nM and the EC50 (human CLDN18.2 [13]) was 1450 nM. The “ADCC EC50, Jurkat-CD16a v158-NFAT-luciferase effector cells, KATOIII target cells” value (human CLDN18.2 [14]) was 16.9 nM, the “ADCC EC50, Jurkat-CD16a v158-NFAT-luciferase effector cells, U2OS-CLDN18.2 target cells” value (human CLDN18.2 [14]) was 0.014 nM and the EC50 (human CLDN18.2 [15]) was 293 nM. For the same binder, the “ADCC EC50, PBMC effector cells, KATOIII target cells” value (human CLDN18.2 [16]) was roughly 0.123 nM, the “ADCC EC50, PBMC effector cells, NUGC-4 target cells” value (human CLDN18.2 [16]) was 37.1 nM and the “ADCC Maximum killing (%), PBMC effector cells, KATOIII target cells” value (human CLDN18.2 [16]) was 20.7%. The “ADCC Maximum killing (%), PBMC effector cells, NUGC-4 target cells” value (human CLDN18.2 [16]) was 29.1%, the MFI (human CLDN18.1) was 6220 and the EC50 (human CLDN18.2 [17]) was 16.3 nM. The “ADCC EC50, Jurkat-CD16a v158-NFAT-luciferase effector cells, KATOIII target cells” value (human CLDN18.2 [18]) was 1.52 nM, the “ADCC EC50, Jurkat-CD16a v158-NFAT-luciferase effector cells, NUGC-4 target cells” value (human CLDN18.2 [18]) was 12 nM and the “ADCC EC50, Jurkat-CD16a v158-NFAT-luciferase effector cells, U2OS-CLDN18.2 target cells” value (human CLDN18.2 [18]) was 0.05 nM.
